Measured values from paper PMC12305242, “Native Top–Down Analysis of Membrane Protein Complexes Directly From In Vitro and Native Membranes” (Molecular & Cellular Proteomics : MCP, 2025).

Key:
[1] = molecular target: T1, β-barrel–assembly machinery (BAM) complex (Escherichia coli, UniProt P0A940); assay: native MS of membrane vesicles, complex-up (HCD) of bound species; type: binding; details: 100 uM MRL-494, 1 h on ice, native E. coli membrane vesicles; bound to the complex, subunit not resolved
T1 construct: gene bamA; endogenous, untagged heteropentamer BAM-ABCDE, lipidated proteoforms, about 199 kDa, ejected from native E. coli BL21 membrane vesicles; with Outer membrane protein assembly factor BamB; Outer membrane protein assembly factor BamC; Outer membrane protein assembly factor BamD; Outer membrane protein assembly factor BamE

[2] = molecular target: T2, dihydrolipoyl dehydrogenase (DLDH) (Escherichia coli, UniProt P0A9P0); assay: native MS complex-up (HCD), mass shift of ejected monomer; type: binding; details: endogenous ligand, native E. coli membrane vesicles; ligand identified by added mass and database search
T2 construct: gene lpdA; endogenous, untagged, ejected from native E. coli BL21 membrane vesicles
T2 sequence (P0A9P0 2-474): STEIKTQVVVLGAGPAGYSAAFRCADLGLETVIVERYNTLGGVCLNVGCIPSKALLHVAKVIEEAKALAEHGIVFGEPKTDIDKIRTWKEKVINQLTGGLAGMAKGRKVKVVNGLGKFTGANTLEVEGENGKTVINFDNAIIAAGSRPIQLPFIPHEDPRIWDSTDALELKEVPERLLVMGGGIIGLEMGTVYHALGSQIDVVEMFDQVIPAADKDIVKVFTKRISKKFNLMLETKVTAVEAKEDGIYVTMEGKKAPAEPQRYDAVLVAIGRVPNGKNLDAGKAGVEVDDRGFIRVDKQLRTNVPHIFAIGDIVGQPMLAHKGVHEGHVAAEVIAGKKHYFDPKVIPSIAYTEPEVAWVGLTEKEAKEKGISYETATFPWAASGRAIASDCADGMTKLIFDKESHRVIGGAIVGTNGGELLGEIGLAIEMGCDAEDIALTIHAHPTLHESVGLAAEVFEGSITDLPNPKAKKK

[3] = molecular target: the molecule itself; assay: native MS; endogenous complexes ejected from E. coli BL21 native membrane vesicles (500 mM NH4Ac, 300 ug/ml protein, 5% (v/v) glycerol as supercharger), in-source activation; quadrupole isolation and complex-up analysis by HCD/CID; no detergent
[4] = molecular target: the molecule itself; assay: native MS; purified protein reconstituted into proteoliposomes (E. coli Polar Lipid Extract, 200 mM NH4Ac), 0.1% (v/v) 3-nitrobenzyl alcohol as supercharger, ejected by in-source activation; protein 2 to 10 uM; Q Exactive UHMR
AqpZ, P60844 = molecular target: T3, AqpZ, P60844; assay: as above; details: remark: other sources report otherwise
T3 chain: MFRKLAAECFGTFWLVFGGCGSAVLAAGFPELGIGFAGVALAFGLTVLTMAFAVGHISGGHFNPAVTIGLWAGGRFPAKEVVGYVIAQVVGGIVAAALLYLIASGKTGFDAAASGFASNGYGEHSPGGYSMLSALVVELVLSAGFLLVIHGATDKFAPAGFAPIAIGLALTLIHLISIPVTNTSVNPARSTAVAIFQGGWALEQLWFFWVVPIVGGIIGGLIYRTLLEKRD

Molecule: NC(N)=NC(=O)CC(Nc1nc(N=C(N)N)nc(NC2CCC(NC(=O)Cn3nnc(-c4ccc(F)cc4)n3)CC2)n1)C1CC1 (centres unmarked) [MRL-494]
- native MS of membrane vesicles, complex-up (HCD) of bound species [1]: The results provide direct evidence for MRL-494 BAM complex interaction

Molecule: Cc1cc2nc3c(=O)[nH]c(=O)nc-3n(C[C@H](O)[C@H](O)[C@H](O)COP(=O)(O)OP(=O)(O)OC[C@H]3O[C@@H](n4cnc5c(N)ncnc54)[C@H](O)[C@@H]3O)c2cc1C [flavin adenine dinucleotide]
- native MS complex-up (HCD), mass shift of ejected monomer [2]: identified the ligand as flavin adenine dinucleotide, an endogenous cofactor of DLDH

B1: dihydrolipoyl dehydrogenase (enzyme, UniProt P0A9P0 1-474, looked up)
chain: MSTEIKTQVVVLGAGPAGYSAAFRCADLGLETVIVERYNTLGGVCLNVGCIPSKALLHVAKVIEEAKALAEHGIVFGEPKTDIDKIRTWKEKVINQLTGGLAGMAKGRKVKVVNGLGKFTGANTLEVEGENGKTVINFDNAIIAAGSRPIQLPFIPHEDPRIWDSTDALELKEVPERLLVMGGGIIGLEMGTVYHALGSQIDVVEMFDQVIPAADKDIVKVFTKRISKKFNLMLETKVTAVEAKEDGIYVTMEGKKAPAEPQRYDAVLVAIGRVPNGKNLDAGKAGVEVDDRGFIRVDKQLRTNVPHIFAIGDIVGQPMLAHKGVHEGHVAAEVIAGKKHYFDPKVIPSIAYTEPEVAWVGLTEKEAKEKGISYETATFPWAASGRAIASDCADGMTKLIFDKESHRVIGGAIVGTNGGELLGEIGLAIEMGCDAEDIALTIHAHPTLHESVGLAAEVFEGSITDLPNPKAKKK
notes: dihydrolipoyl dehydrogenase (DLDH, gene lpdA), E. coli BL21, endogenous peripheral membrane protein; also called DLDH; lpdA; source: endogenous, E. coli BL21 membrane vesicles (N2 cavitation)
- stoichiometry N [3]: 2

B2: semiSWEET (natural protein)
chain: MALIERIGKALEPLMLVMGLISPLATMPQLYKLYVSHSEHALGLSLTTWLLYSFIALLWTIYGIYHKNPTIWVGNCLGFLMYVAMVVGIIAHTGGTY
- stoichiometry N [4]: 2

B3: AqpZ, P60844 1-231 (natural protein)
chain: MFRKLAAECFGTFWLVFGGCGSAVLAAGFPELGIGFAGVALAFGLTVLTMAFAVGHISGGHFNPAVTIGLWAGGRFPAKEVVGYVIAQVVGGIVAAALLYLIASGKTGFDAAASGFASNGYGEHSPGGYSMLSALVVELVLSAGFLLVIHGATDKFAPAGFAPIAIGLALTLIHLISIPVTNTSVNPARSTAVAIFQGGWALEQLWFFWVVPIVGGIIGGLIYRTLLEKRD
- stoichiometry N (AqpZ, P60844): 4
